Source: the supplement of paper PMC10724198
± gives the standard deviation of the averaged measurements.

What was measured:
[1] = tested on: Saccharomyces cerevisiae; test: protein stability index of tFT-peptide fusion (C-terminal peptide) (PSI (0-1 scale)); higher = more stable (slower turnover)
Method: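 MPS profiling in S. cerevisiae of the tFT-X12 degron library: putative degron peptides plus stable controls, 12 aa, fused to the C-terminus of a sfGFP-mCherry timer. Cells are FACS-sorted into 8 mCherry/sfGFP bins and deep-sequenced. PSI runs from 0 (unstable) to 1 (stable). Backgrounds are wild type, das1Δ and doa10Δ at 30 °C, and wild type, das1Δ, cdc34-1 and cdc53-1 at 37 °C; 2-3 technical replicates each.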

[2] = tested on: Saccharomyces cerevisiae; test: as above; settings: genetic background: wild type; temperature: 30 C
[3] = genetic background: cdc34-1, temperature: 37 C
[4] = genetic background: cdc53-1, temperature: 37 C
[5] = genetic background: das1 deletion, temperature: 30 C
[6] = genetic background: das1 deletion, temperature: 37 C
[7] = genetic background: doa10 deletion, temperature: 30 C
[8] = genetic background: wild type, temperature: 30 C
[9] = genetic background: wild type, temperature: 37 C
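Note: PSI is a weighted mean of sequencing reads over stability bins, variants kept only with over 10 reads, mCherry proximal and sfGFP distal, peptide attached via GGGS linker.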

| Sequence | protein stability index [1, 3] | protein stability index [1, 4] | protein stability index [1, 5] | protein stability index [1, 6] | protein stability index [1, 7] | protein stability index [1, 8] | protein stability index [1, 9] | protein stability index [2] |
| --- | --- | --- | --- | --- | --- | --- | --- | --- |
| VLLCGCVWLWWG | 0.437 ± 0.034 | 0.507 ± 0.006 | 0.371 ± 0.038 | 0.5248 ± 0.004 | 0.349 ± 0.013 | 0.364 ± 0.014 | 0.5013 ± 0.0039 | 0.4494 ± 0.0012 |
| VLLFGLAFFFSF | 0.422 ± 0.058 | 0.4953 ± 0.0026 | 0.367 ± 0.053 | 0.537 ± 0.036 | 0.222 ± 0.013 | 0.241 ± 0.029 | 0.408 ± 0.033 | 0.371 ± 0.055 |
| VLLGYPRILSLF | 0.7 ± 0.059 | 0.8278 ± 0.002 | 0.681 ± 0.0075 | 0.8122 ± 0.0047 | 0.1646 ± 0.0013 | 0.167 ± 0.021 | 0.25 ± 0.0096 | 0.35 ± 0.061 |
| VLLRSRLLRRLS | 0.588 ± 0.055 | 0.6547 ± 0.0063 | 0.67 ± 0.048 | 0.72 ± 0.033 | 0.137 ± 0.013 | 0.137 ± 0.038 | 0.235 ± 0.02 | 0.211 ± 0.024 |
| VLRCIWLCFLSV | 0.487 ± 0.025 | 0.5129 ± 0.0034 | 0.439 ± 0.034 | 0.607 ± 0.032 | 0.448 ± 0.039 | 0.4 ± 0.013 | 0.561 ± 0.036 | 0.465 ± 0.043 |
| VLRLVLFVLISV | 0.311 ± 0.065 | 0.348 ± 0.019 | 0.277 ± 0.03 | 0.387 ± 0.016 | 0.2853 ± 0.0015 | 0.268 ± 0.015 | 0.352 ± 0.016 | 0.337 ± 0.0069 |
| VLSCVWFVVVGV | 0.247 ± 0.013 | 0.316 ± 0.034 | 0.245 ± 0.028 | 0.441 ± 0.019 | 0.202 ± 0.0034 | 0.22 ± 0.033 | 0.4017 ± 0.0016 | 0.3596 ± 0.00083 |
| VLYWTGTLFVSL | 0.208 ± 0.00082 | 0.355 ± 0.0038 | 0.218 ± 0.017 | 0.426 ± 0.0064 | 0.195 ± 0.019 | 0.233 ± 0.028 | 0.424 ± 0.038 | 0.307 ± 0.035 |
| VPIIVVVYVFVT | 0.13 ± 0.022 | 0.247 ± 0.11 | 0.157 ± 0.03 | 0.306 ± 0.024 | 0.105 ± 0.025 | 0.134 ± 0.038 | 0.258 ± 0.0081 | 0.203 ± 0.085 |
| VRFLLSLCCALL | 0.588 ± 0.03 | 0.671 ± 0.018 | 0.548 ± 0.033 | 0.624 ± 0.042 | 0.5436 ± 0.0034 | 0.518 ± 0.021 | 0.596 ± 0.032 | 0.4914 ± 0.0025 |
| VRLYLRSCVVES | 0.347 ± 0.061 | 0.368 ± 0.0011 | 0.228 ± 0.029 | 0.437 ± 0.0094 | 0.181 ± 0.0071 | 0.217 ± 0.026 | 0.4148 ± 0.0031 | 0.32 ± 0.021 |
| VRMVIFSSVYLT | 0.462 ± 0.002 | 0.509 ± 0.03 | 0.362 ± 0.033 | 0.533 ± 0.0036 | 0.256 ± 0.008 | 0.26 ± 0.027 | 0.448 ± 0.02 | 0.309 ± 0.0098 |
| VRWLVFFLFLFG | 0.501 ± 0.011 | 0.481 ± 0.013 | 0.406 ± 0.023 | 0.555 ± 0.0072 | 0.322 ± 0.0038 | 0.327 ± 0.022 | 0.497 ± 0.016 | 0.466 ± 0.074 |
| VSCLDLCFVISR | 0.647 ± 0.041 | 0.681 ± 0.022 | 0.503 ± 0.034 | 0.66874 ± 0.00016 | 0.528 ± 0.029 | 0.514 ± 0.025 | 0.626 ± 0.018 | 0.437 ± 0.013 |
| VSCYYVFLIPFW | 0.463 ± 0.011 | 0.6 ± 0.036 | 0.414 ± 0.038 | 0.57839 ± 0.00033 | 0.408 ± 0.018 | 0.409 ± 0.017 | 0.56 ± 0.0097 | 0.484 ± 0.02 |
| VSFLLYNFLSVF | 0.286 ± 0.0083 | 0.418 ± 0.0077 | 0.346 ± 0.028 | 0.4643 ± 0.0021 | 0.053 ± 0.019 | 0.0707 ± 0.012 | 0.0652 ± 0.015 | 0.101 ± 0.0017 |
| VSFLVSIFVSGV | 0.189 ± 0.025 | 0.246 ± 0.036 | 0.216 ± 0.029 | 0.372 ± 0.0078 | 0.2 ± 0.025 | 0.194 ± 0.048 | 0.332 ± 0.015 | 0.303 ± 0.039 |
| VSLLSLGYVFVY | 0.286 ± 0.05 | 0.27 ± 0.03 | 0.212 ± 0.038 | 0.3467 ± 0.00073 | 0.184 ± 0.0098 | 0.216 ± 0.033 | 0.319 ± 0.0037 | 0.307 ± 0.019 |
| VSLLVFVVSSRV | 0.345 ± 0.034 | 0.418 ± 0.0047 | 0.262 ± 0.031 | 0.476 ± 0.016 | 0.223 ± 0.0068 | 0.255 ± 0.022 | 0.444 ± 0.013 | 0.3816 ± 0.0022 |
| VSPPPLSPPLSR | 0.677 ± 0.014 | 0.7238 ± 0.0031 | 0.6712 ± 0.0055 | 0.709 ± 0.012 | 0.686 ± 0.0078 | 0.673 ± 0.0092 | 0.688 ± 0.014 | 0.701 ± 0.0022 |

| Sequence | protein stability index [1, 3] | protein stability index [1, 4] | protein stability index [1, 5] | protein stability index [1, 6] | protein stability index [1, 7] | protein stability index [1, 8] | protein stability index [1, 9] | protein stability index [2] |
| --- | --- | --- | --- | --- | --- | --- | --- | --- |
| VTMTPSLCFSYS | 0.688 ± 0.017 | 0.684 ± 0.023 | 0.388 ± 0.029 | 0.668 ± 0.013 | 0.364 ± 0.0098 | 0.396 ± 0.01 | 0.632 ± 0.016 | 0.464 ± 0.018 |
| VTRLLLSRIDCY | 0.437 ± 0.018 | 0.445 ± 0.0057 | 0.376 ± 0.028 | 0.501 ± 0.016 | 0.346 ± 0.011 | 0.367 ± 0.025 | 0.468 ± 0.022 | 0.445 ± 0.11 |
| VVFLFVEAVVGV | 0.0536 ± 0.018 | 0.0519 ± 0.021 | 0.0387 ± 0.014 | 0.0974 ± 0.015 | 0.0288 ± 0.0048 | 0.0238 ± 0.0054 | 0.0933 ± 0.022 | 0.0707 ± 0.0075 |
| VVFVVGAPPVLC | 0.476 ± 0.018 | 0.481 ± 0.036 | 0.359 ± 0.024 | 0.532 ± 0.013 | 0.323 ± 0.016 | 0.365 ± 0.0082 | 0.5068 ± 0.0019 | 0.4834 ± 0.0027 |
| VVGVVVCWGCGW | 0.493 ± 0.02 | 0.555 ± 0.057 | 0.393 ± 0.024 | 0.587 ± 0.0062 | 0.369 ± 0.021 | 0.397 ± 0.018 | 0.535 ± 0.0068 | 0.45 ± 0.023 |
| VVPWLGYVSCFS | 0.452 ± 0.031 | 0.487 ± 0.027 | 0.357 ± 0.029 | 0.521 ± 0.0067 | 0.324 ± 0.0094 | 0.366 ± 0.032 | 0.5026 ± 0.0044 | 0.465 ± 0.041 |
| VVRAVLCVCASV | 0.4577 ± 0.0025 | 0.489 ± 0.0069 | 0.409 ± 0.028 | 0.518 ± 0.0019 | 0.387 ± 0.012 | 0.413 ± 0.021 | 0.489 ± 0.018 | 0.45987 ± 0.00039 |
| VVRYGGVIAFRG | 0.841 ± 0.065 | 0.641 ± 0.085 | 0.547 ± 0.017 | 0.725 ± 0.029 | 0.579 ± 0.072 | 0.691 ± 0.13 | 0.684 ± 0.13 | 0.596 ± 0.24 |
| VVWCLLARVLLV | 0.332 ± 0.017 | 0.4 ± 0.02 | 0.306 ± 0.036 | 0.46657 ± 0.00033 | 0.1578 ± 0.00094 | 0.167 ± 0.019 | 0.243 ± 0.011 | 0.218 ± 0.026 |
| VWICPTLFLLFS | 0.486 ± 0.03 | 0.509 ± 0.0088 | 0.369 ± 0.05 | 0.544 ± 0.013 | 0.45736 ± 0.00021 | 0.374 ± 0.018 | 0.529 ± 0.0063 | 0.455 ± 0.014 |
| VYDVSVGVAVVG | 0.44 ± 0.018 | 0.464 ± 0.041 | 0.34 ± 0.037 | 0.5196 ± 0.0031 | 0.291 ± 0.017 | 0.346 ± 0.025 | 0.48822 ± 0.00017 | 0.4567 ± 0.002 |
| VYKSTHKIYILT | 0.609 ± 0.011 | 0.729 ± 0.023 | 0.53 ± 0.011 | 0.6774 ± 0.0066 | 0.318 ± 0.0091 | 0.364 ± 0.028 | 0.5493 ± 0.0012 | 0.45 ± 0.022 |
| VYQAFIFRMSLF | 0.529 ± 0.026 | 0.672 ± 0.0078 | 0.586 ± 0.019 | 0.695 ± 0.016 | 0.147 ± 0.0025 | 0.159 ± 0.02 | 0.248 ± 0.0046 | 0.243 ± 0.068 |
| VYRVTGSWLMWV | 0.511 ± 0.059 | 0.5758 ± 0.0051 | 0.483 ± 0.021 | 0.527 ± 0.0078 | 0.353 ± 0.03 | 0.357 ± 0.019 | 0.4879 ± 0.0027 | 0.434 ± 0.007 |
| VYTVGFVCWLVY | 0.203 ± 0.0067 | 0.27 ± 0.013 | 0.208 ± 0.021 | 0.3458 ± 0.0024 | 0.185 ± 0.014 | 0.176 ± 0.025 | 0.323 ± 0.016 | 0.316 ± 0.026 |
| VYWRGLHLQRLL | 0.681 ± 0.036 | 0.7679 ± 0.0013 | 0.652 ± 0.033 | 0.775 ± 0.024 | 0.26 ± 0.0053 | 0.29 ± 0.028 | 0.4753 ± 0.0016 | 0.418 ± 0.05 |
| WALWGFVFWDWW | 0.402 ± 0.049 | 0.476 ± 0.016 | 0.377 ± 0.035 | 0.5133 ± 0.0029 | 0.3786 ± 0.0011 | 0.365 ± 0.023 | 0.501 ± 0.0078 | 0.497 ± 0.03 |
| WCGLFCRSVFVV | 0.28221 ± 0.00025 | 0.363 ± 0.0043 | 0.263 ± 0.033 | 0.406 ± 0.0015 | 0.0996 ± 0.0021 | 0.11 ± 0.023 | 0.108 ± 0.0023 | 0.158 ± 0.072 |
| WDEVVAIVVCPV | 0.436 ± 0.016 | 0.421 ± 0.0076 | 0.293 ± 0.036 | 0.493 ± 0.012 | 0.242 ± 0.0082 | 0.3 ± 0.016 | 0.457 ± 0.015 | 0.39 ± 0.023 |
